Measurements as given in patent US20250320281A1.

What was measured:
WT JR-FL gp120 (HIV-1) = assay: ELISA, antigen-coated wells
[1] = molecular target: HIV-1 Env of pseudovirus isolate MGRM-G-027 (HIV-1); assay: cell-based or functional assay
[2] = molecular target: HIV-1 MGRM-D-018 Env (pseudovirus) (HIV-1); assay: cell-based or functional assay
[3] = molecular target: HIV-1 Env of isolate MGRM-C-001 (HIV-1); assay: cell-based or functional assay
[4] = molecular target: HIV-1 Env of isolate MGRM-C-009 (HIV-1); assay: cell-based or functional assay
[5] = molecular target: HIV-1 CMU02 Env (pseudovirus) (HIV-1); assay: cell-based or functional assay
[6] = molecular target: HIV-1 Env of isolate MGRM-C-005 (HIV-1); assay: cell-based or functional assay
[7] = molecular target: HIV-1 94UG103 Env (pseudovirus) (HIV-1); assay: cell-based or functional assay
[8] = molecular target: HIV-1 APV6 Env (pseudovirus) (HIV-1); assay: cell-based or functional assay
[9] = molecular target: HIV-1 MGRM-C-028 Env (pseudovirus) (HIV-1); assay: cell-based or functional assay
[10] = molecular target: envelope of aMLV pseudovirus (negative control); assay: cell-based or functional assay
[11] = molecular target: HIV-1 Env of isolate MGRM-C-023 (HIV-1); assay: cell-based or functional assay
[12] = molecular target: HIV-1 JRCSF Env (pseudovirus) (HIV-1) (UniProt P20871); assay: cell-based or functional assay
[13] = molecular target: HIV-1 Env of pseudovirus isolate MGRM-G-017 (HIV-1); assay: cell-based or functional assay
[14] = molecular target: HIV-1 MGRM-C-026 Env (pseudovirus) (HIV-1); assay: cell-based or functional assay
[15] = molecular target: HIV-1 Env of isolate MGRM-C-002 (HIV-1); assay: cell-based or functional assay
[16] = molecular target: HIV-1 NL43 Env (pseudovirus) (HIV-1); assay: cell-based or functional assay
[17] = molecular target: HIV-1 Env of isolate MGRM-C-014 (HIV-1); assay: cell-based or functional assay
[18] = molecular target: HIV-1 Env of isolate MGRM-C-020 (HIV-1); assay: cell-based or functional assay
[19] = molecular target: HIV-1 Env of pseudovirus isolate MGRM-G-015 (HIV-1); assay: cell-based or functional assay
[20] = molecular target: HIV-1 Env of pseudovirus isolate MGRM-G-006 (HIV-1); assay: cell-based or functional assay
[21] = molecular target: HIV-1 Env of isolate MGRM-C-004 (HIV-1); assay: cell-based or functional assay
[22] = molecular target: HIV-1 MGRM-C-027 Env (pseudovirus) (HIV-1); assay: cell-based or functional assay
[23] = molecular target: HIV-1 Env of isolate MGRM-C-024 (HIV-1); assay: cell-based or functional assay
[24] = molecular target: HIV-1 Env of isolate MGRM-C-022 (HIV-1); assay: cell-based or functional assay
[25] = molecular target: HIV-1 Env of isolate MGRM-C-012 (HIV-1); assay: cell-based or functional assay
[26] = molecular target: HIV-1 Env of isolate MGRM-C-013 (HIV-1); assay: cell-based or functional assay
[27] = molecular target: HIV-1 Env of pseudovirus isolate MGRM-G-014 (HIV-1); assay: cell-based or functional assay
[28] = molecular target: HIV-1 Env of isolate MGRM-C-010 (HIV-1); assay: cell-based or functional assay
[29] = molecular target: HIV-1 Env of isolate MGRM-C-019 (HIV-1); assay: cell-based or functional assay
[30] = molecular target: HIV-1 Env of isolate MGRM-C-017 (HIV-1); assay: cell-based or functional assay
[31] = molecular target: HIV-1 Env of pseudovirus isolate MGRM-G-004 (HIV-1); assay: cell-based or functional assay
[32] = molecular target: HIV-1 92TH021 Env (pseudovirus) (HIV-1); assay: cell-based or functional assay
[33] = molecular target: HIV-1 Env of pseudovirus isolate MGRM-G-013 (HIV-1); assay: cell-based or functional assay
[34] = molecular target: HIV-1 Env of pseudovirus isolate MGRM-G-011 (HIV-1); assay: cell-based or functional assay
[35] = molecular target: HIV-1 Env of pseudovirus isolate MGRM-G-009 (HIV-1); assay: cell-based or functional assay
[36] = molecular target: HIV-1 Env of pseudovirus isolate MGRM-G-016 (HIV-1); assay: cell-based or functional assay
[37] = molecular target: HIV-1 Env of isolate MGRM-C-008 (HIV-1); assay: cell-based or functional assay
[38] = molecular target: HIV-1 Env of pseudovirus isolate MGRM-G-019 (HIV-1); assay: cell-based or functional assay
[39] = molecular target: HIV-1 Env of pseudovirus isolate MGRM-G-001 (HIV-1); assay: cell-based or functional assay
[40] = molecular target: HIV-1 92RW020 Env (pseudovirus) (HIV-1); assay: cell-based or functional assay
[41] = molecular target: HIV-1 MGRM-A-010 Env (pseudovirus) (HIV-1); assay: cell-based or functional assay
[42] = molecular target: HIV-1 Env of isolate MGRM-C-025 (HIV-1); assay: cell-based or functional assay
[43] = molecular target: HIV-1 92UG005 Env (pseudovirus) (HIV-1); assay: cell-based or functional assay
[44] = molecular target: HIV-1 Env of isolate MGRM-C-006 (HIV-1); assay: cell-based or functional assay
[45] = molecular target: HIV-1 Env of isolate MGRM-C-015 (HIV-1); assay: cell-based or functional assay
[46] = molecular target: HIV-1 Env of isolate MGRM-C-007 (HIV-1); assay: cell-based or functional assay
[47] = molecular target: HIV-1 92UG024 Env (pseudovirus) (HIV-1); assay: cell-based or functional assay
[48] = molecular target: HIV-1 93IN905 Env (pseudovirus) (HIV-1); assay: cell-based or functional assay

## 4858_P08 (PGT-123) (antibody)
WT JR-FL gp120 (HIV-1)
  EC50: 0.2 µg/mL
[1]
  IC50 (µg/mL), pseudovirus neutralization: 0.182 µg/mL
[2]
  neutralization IC50 (pseudovirus): 4.7 ng/mL
[3]
  neutralization IC50: 42.4 µg/mL
[4]
  neutralization IC50: > 50 µg/mL
[5]
  neutralization IC50 (pseudovirus): > 10 µg/mL
[6]
  neutralization IC50: 0.012 µg/mL
[7]
  neutralization IC50 (pseudovirus): 0.846 µg/mL
[8]
  neutralization IC50 (pseudovirus): 0.0328 µg/mL
[9]
  neutralization IC50 (pseudovirus): 0.443 µg/mL
[10]
  IC50 (µg/mL), pseudovirus neutralization: > 50 µg/mL
[11]
  neutralization IC50: 0.011 µg/mL
[12]
  neutralization IC50 (pseudovirus): 0.0423 µg/mL
[13]
  IC50 (µg/mL), pseudovirus neutralization: 0.026 µg/mL
[14]
  neutralization IC50 (pseudovirus): 3.1 ng/mL
[15]
  neutralization IC50: 0.01 µg/mL
[16]
  neutralization IC50 (pseudovirus): > 10 µg/mL
[17]
  neutralization IC50: 1 µg/mL
[18]
  neutralization IC50: > 50 µg/mL
[19]
  IC50 (µg/mL), pseudovirus neutralization: > 50 µg/mL
[20]
  IC50 (µg/mL), pseudovirus neutralization: > 50 µg/mL
[21]
  neutralization IC50: 0.009 µg/mL
[22]
  neutralization IC50 (pseudovirus): 0.0169 µg/mL
[23]
  neutralization IC50: 0.195 µg/mL
[24]
  neutralization IC50: 0.01 µg/mL
[25]
  neutralization IC50: 0.606 µg/mL
[26]
  neutralization IC50: 14.9 µg/mL
[27]
  IC50 (µg/mL), pseudovirus neutralization: 0.005 µg/mL
[28]
  neutralization IC50: > 50 µg/mL
[29]
  neutralization IC50: > 50000 ng/mL
[30]
  neutralization IC50: 0.01 µg/mL
[31]
  IC50 (µg/mL), pseudovirus neutralization: 0.181 µg/mL
[32]
  neutralization IC50 (pseudovirus): > 10 µg/mL
[33]
  IC50 (µg/mL), pseudovirus neutralization: 3.97 µg/mL
[34]
  IC50 (µg/mL), pseudovirus neutralization: 14.9 µg/mL
[35]
  IC50 (µg/mL), pseudovirus neutralization: 33.5 µg/mL
[36]
  IC50 (µg/mL), pseudovirus neutralization: > 50 µg/mL
[37]
  neutralization IC50: 0.011 µg/mL
[38]
  IC50 (µg/mL), pseudovirus neutralization: 0.008 µg/mL
[39]
  IC50 (µg/mL), pseudovirus neutralization: 0.009 µg/mL
[40]
  neutralization IC50 (pseudovirus): 3.8 ng/mL
[41]
  neutralization IC50 (pseudovirus): 0.492 µg/mL
[42]
  neutralization IC50: 13.3 µg/mL
[43]
  neutralization IC50 (pseudovirus): 2.49 µg/mL
[44]
  neutralization IC50: 0.021 µg/mL
[45]
  neutralization IC50: 13.1 µg/mL
[46]
  neutralization IC50: 0.547 µg/mL
[47]
  neutralization IC50 (pseudovirus): > 10 µg/mL
[48]
  neutralization IC50 (pseudovirus): 0.0071 µg/mL

## 5141_B17 (PGT-126) (antibody)
WT JR-FL gp120 (HIV-1)
  EC50: 0.1 µg/mL
[1]
  IC50 (µg/mL), pseudovirus neutralization: 0.875 µg/mL
[2]
  neutralization IC50 (pseudovirus): 9.3 ng/mL
[3]
  neutralization IC50: > 50 µg/mL
[4]
  neutralization IC50: > 50 µg/mL
[5]
  neutralization IC50 (pseudovirus): > 10 µg/mL
[6]
  neutralization IC50: 0.298 µg/mL
[7]
  neutralization IC50 (pseudovirus): 0.0091 µg/mL
[8]
  neutralization IC50 (pseudovirus): 0.0249 µg/mL
[9]
  neutralization IC50 (pseudovirus): 0.283 µg/mL
[10]
  IC50 (µg/mL), pseudovirus neutralization: > 50 µg/mL
[11]
  neutralization IC50: 0.065 µg/mL
[12]
  neutralization IC50 (pseudovirus): 0.0061 µg/mL
[13]
  IC50 (µg/mL), pseudovirus neutralization: > 50 µg/mL
[14]
  neutralization IC50 (pseudovirus): 7.6 ng/mL
[15]
  neutralization IC50: 0.011 µg/mL
[16]
  neutralization IC50 (pseudovirus): > 10 µg/mL
[17]
  neutralization IC50: > 50 µg/mL
[18]
  neutralization IC50: > 50 µg/mL
[19]
  IC50 (µg/mL), pseudovirus neutralization: > 50 µg/mL
[20]
  IC50 (µg/mL), pseudovirus neutralization: > 50 µg/mL
[21]
  neutralization IC50: 0.033 µg/mL
[22]
  neutralization IC50 (pseudovirus): 1.14 µg/mL
[23]
  neutralization IC50: > 50 µg/mL
[24]
  neutralization IC50: 0.96 µg/mL
[25]
  neutralization IC50: 0.111 µg/mL
[26]
  neutralization IC50: > 50 µg/mL
[27]
  IC50 (µg/mL), pseudovirus neutralization: 0.009 µg/mL
[28]
  neutralization IC50: > 50 µg/mL
[29]
  neutralization IC50: 6 ng/mL
[30]
  neutralization IC50: 0.17 µg/mL
[31]
  IC50 (µg/mL), pseudovirus neutralization: > 50 µg/mL
[32]
  neutralization IC50 (pseudovirus): 0.115 µg/mL
[33]
  IC50 (µg/mL), pseudovirus neutralization: 48.8 µg/mL
[34]
  IC50 (µg/mL), pseudovirus neutralization: 7.32 µg/mL
[35]
  IC50 (µg/mL), pseudovirus neutralization: > 50 µg/mL
[36]
  IC50 (µg/mL), pseudovirus neutralization: > 50 µg/mL
[37]
  neutralization IC50: 2.12 µg/mL
[38]
  IC50 (µg/mL), pseudovirus neutralization: 0.018 µg/mL
[39]
  IC50 (µg/mL), pseudovirus neutralization: 0.038 µg/mL
[40]
  neutralization IC50 (pseudovirus): 4.6 ng/mL
[41]
  neutralization IC50 (pseudovirus): 0.0033 µg/mL
[42]
  neutralization IC50: 0.786 µg/mL
[43]
  neutralization IC50 (pseudovirus): 0.0181 µg/mL
[44]
  neutralization IC50: 0.014 µg/mL
[45]
  neutralization IC50: 3.14 µg/mL
[46]
  neutralization IC50: 25.3 µg/mL
[47]
  neutralization IC50 (pseudovirus): > 10 µg/mL
[48]
  neutralization IC50 (pseudovirus): 0.0194 µg/mL
